The results in this text go back to article PMC11027885, “Utilizing surface plasmon resonance as a novel method for monitoring in-vitro P-glycoprotein efflux” (Frontiers in biophysics, 2024).

This series concerns CCC(=O)C(CC(C)N(C)C)(c1ccccc1)c1ccccc1. Briefly: purified protein, by the assay type. Particulars: other: 50 nM Pgp in liposomes; curve fit.

As for mouse Pgp (Abcb1a, MDR3) (Mus musculus), the Km came out at 28 ± 10 µM.

As usually defined, the Km is the substrate concentration at which the rate is half of its maximum.
